Assay results reported in patent publication US20260069707A1, “COMBINATION THERAPY WITH ANTIBODY-DRUG CONJUGATES AND HYALURONIDASES” (HALOZYME, INC., priority 2024, published 2026).
Where two headings read alike, the source gives them in different places. Marks after values point to notes of the source that are not given here.

Assays:
[1] = Histological analysis (H&E) of post-injection tissue samples; assay type: in vivo, Yucatan miniature pig (Sus scrofa domestica)
Description: Following the assessment after day three, the animal was humanely euthanized using an injectable euthanasia drug provided by the vivarium staff. Following euthanasia full thickness punch biopsies of the injection site were taken (12 mm) and placed in 10% formalin. After obtaining the punch biopsies the animal carcass was removed and disposed of as biohazardous waste. Sections were made from tissue samples and assessed for histopathology using hematoxylin and eosin staining methods. Analyses were performed on each injection site (2 biopsies) and one untreated site. Three tissue depths were examined from each tissue section following level sectioning technique, representing the beginning, middle and end of each section.
After fixation the samples were processed and embedded into paraffin to make formalin fixed paraffin embedded (FFPE) tissues sections Each tissue section was evaluated at three different tissue depths (1-2-3; low-medium-high). In addition to tissue samples from the injection site, a sample was taken from naïve untreated tissue for comparison.
Each injection was one mL and was delivered using a pre-filled 1-cc syringe. After the last timepoint, the animal was humanely euthanized. After euthanasia, punch biopsies of each injection site were obtained and preserved in 10% formalin for histological analyses.
After fixation, the samples were processed and embedded into paraffin to make formalin fixed paraffin embedded (FFPE) tissues sections Each tissue section was evaluated at three different tissue depths (1-2-3; low-medium-high). In addition to tissue samples from the injection site, a sample was taken from two naïve untreated tissue sites for comparison. Tissue sections were prepared and stained with hematoxylin and eosin for pathohistological evaluation.
Method: After 72h, animals were euthanized and full-thickness punch biopsies taken (12 mm). FFPE sections were prepared from each injection site. Samples were evaluated at three different tissue depths. A sample of naïve skin was also included for comparison. Results: 1/3 tissue samples from ADC alone had multiple focal infiltrates in SC (all levels).

[2] = pig, in vivo
Experimental: Serum concentrations of total ADC, total antibody and Free Payload (unconjugated SN38) were determined in three separate assays conducted by PPD.
A 20.0-μL sample aliquot was diluted 10-fold. A portion of the diluted sample was taken and processed using an immunoaffinity approach. SMART Digest IA magnetic beads coated with anti-human Fc antibody were used to enrich Trodelvy from matrix. The bound proteins were subjected to “on-bead” proteolysis with trypsin. […] After trypsin digestion, the proteins were further subjected to acidic conditions to release SN-38 from the antibody, which was used for Total ADC quantitation. The following sequences in Table 49 were selected for monitoring in the assay:
VVSV was used for the quantitation of Total Antibody concentrations, DSTY was used for the quantitation of Intact Antibody (trouble shooting purposes only), and SN-38 was used for quantitating Total ADC concentrations.
A nominal unconjugated SN-38, concentration range of […] was chosen to quantitate samples. This assay requires a 50.0 μL porcine serum aliquot. Samples were kept frozen at −80° C. prior to analysis.
A matrix aliquot was fortified with internal standard. Analytes were isolated through protein precipitation. The eluate was evaporated under a nitrogen stream, and the remaining residue reconstituted. Final extracts were analyzed via HPLC MS/MS detection using positive ion electrospray.
Therefore, nominal time points were used for PK analyses. To estimate the serum concentration at time zero for intravenous (IV) data, a second-order polynomial regression was applied to the early serum time points (0.25, 1, and 2 hours). The intercept of the fitted polynomial curve was used as the extrapolated concentration at time zero. Skin concentration data (μg/mL) was normalized to total protein (mg/mL) per sample, resulting in values represented as μg/mg protein.
Pharmacokinetic parameters were calculated using noncompartmental methods performed in Microsoft Excel. The area under the concentration-time curve (AUC) was determined using the linear trapezoidal rule. For serum data, AUC0-7 was calculated using all available time points. For skin data, AUC1-7 was computed based on the three available time point measurements. The maximum observed concentration (Cmax) was identified directly from the dataset, and the time at which it occurred (Tmax) was recorded. All calculations were performed using Microsoft Excel.
Quantitation of total antibody, total ADC, and free payload (SN-38) from Trodelvy in porcine serum and tissue samples was performed via HPLC with MS/MS detection.

[3] = Linker stability during skin tissue sample preparation (Trodelvy spiked into skin tissue); conditions: 100 μg/mL Trodelvy spiked into skin tissue, protein precipitation, LC-MS/MS
Experimental: Linker stability during skin tissue sample preparation was assessed by spiking 100 μg/mL Trodelvy into skin tissue, followed by protein precipitation and subsequent sample preparation for LC-MS/MS analysis. Free SN-38 was detected at approximately 10% of the total, which may be attributable to residual impurities in Trodelvy and/or linker hydrolysis occurring during the skin tissue processing steps. FIG. 62 provides the ratio of total ADC to total antibody (TADC/TAB) in skin tissue over time. Table 69 depicts the ratio of total ADC to total antibody in skin tissue homogenates, providing an indication of the extent of intact ADC that is remaining in the SC space over time.

## Sacituzumab govitecan [Trodelvy]
[1]; Example 3: 1 mL SC, exposure times 4 hours or less
  Local skin tolerability: demonstrated local skin tolerability
[1]; pig, in vivo
  Tissue samples/injections with multiple focal (immune cell) infiltrates in SC: 1/3
[1]; pig, in vivo, sc
  Focal instances of [immune] cell infiltrates in the SC space: 2
  Necrosis: 0
  Pathohistological findings (H&E): no findings
[2]
  Relative difference in serum AUC0-7, Free Payload: 59%
  Relative difference in serum AUC0-7, TAB: 76%
  Relative difference in serum AUC0-7, TADC: 34%
  Relative difference in serum Cmax, Free Payload: 38%
  Relative difference in serum Cmax, TAB: 44%
  Relative difference in serum Cmax, TADC: 13%
[2]; 50 mg
  TADC/Free Payload, Tmax: 100%
  TADC/TAB, Tmax: 33%
[2]; iv
  AUC0-7 of free payload: 0.1252 µg·days/mL
  AUC0-7 of total ADC (TADC): 41.44 µg·days/mL
  AUC0-7 of total antibody (TAB): 193.05 µg·days/mL
  Cmax of free payload: 0.0953 µg/mL
  Cmax of total ADC (TADC): 60.55 µg/mL
  Cmax of total antibody (TAB): 57.60 µg/mL
  Tmax of free payload: 0 h
  Tmax of total ADC (TADC): 0 h
  Tmax of total antibody (TAB): 0 h
[2]; iv, 50 mg, 6 h
  Total ADC Result: 43.9 µg/mL
[2]; iv, 50 mg, 24 h
  Total ADC Result: 10 µg/mL
[2]; iv, 50 mg, 48 h
  Total ADC Result: 2.27 µg/mL
[2]; iv, 50 mg, 72 h
  Total ADC Result: 0.751 µg/mL
[2]; iv, 50 mg, 96 h
  Total ADC Result: <0.500 µg/mL
[2]; iv, 50 mg, 168 h
  Total ADC Result: 0.1 µg/mL
[2]; iv, 6 h
  serum concentration of total ADC (TADC): 43.90 µg/mL
[2]; iv, 24 h
  serum concentration of total ADC (TADC): 10.00 µg/mL
[2]; iv, 48 h
  serum concentration of total ADC (TADC): 2.27 µg/mL
[2]; iv, 72 h
  serum concentration of total ADC (TADC): 0.75 µg/mL
[2]; iv, 96 h
  serum concentration of total ADC (TADC): <0.50^b μg/mL
[2]; iv, 168 h
  serum concentration of total ADC (TADC): 0.10 µg/mL
[2]; sc
  Tmax of free payload: 24 h
[2]; sc, 0 h
  serum concentration of total ADC (TADC): <0.10^b μg/mL
[2]; sc, 6 h
  serum concentration of total ADC (TADC): 4.96 µg/mL
[2]; sc, 24 h
  serum concentration of total ADC (TADC): 7.87 µg/mL
[2]; sc, 48 h
  serum concentration of total ADC (TADC): 2.77 µg/mL
[2]; sc, 72 h
  serum concentration of total ADC (TADC): 1.00 µg/mL
[2]; sc, 168 h
  serum concentration of total ADC (TADC): 0.13 µg/mL
[3]
  Free SN-38 detected, % of the total: approximately 10%
